B1: Pistol ribozyme (parent)
chain: GGGUCGUUGUUCCAUAAUCGCGUGGAUAUGGCACGCAAGUUUCUACCGGGCACCGUAAAUGUCCGACUGGAGCCGUUCGGGCGGCUAUAAACAGACCUCAGGCCCGAAGCGUGGCGGCACCUGCCGCCGGUGGUAAAAAAGAUCGGAAGAGCACACGUCU

Variants of: B1
Assay: aptazyme ON/OFF ratio, guanine; higher = stronger switching; co-transcriptional cleavage with and without guanine

Going from U8C U10A U11C C12U to U8C G9U U10A U11C C12G C13G, the “aptazyme ON/OFF ratio” value rises from 1.02 to 1.28.

First: U8C G9U U10A U11C C12G C13U
Second: U8C G9U U10A U11C C12G C13A
The “aptazyme ON/OFF ratio” value of the first is higher: 1.31 for the first, 1.25 for the second.

Going from U8C U10A U11C C12G C13U to U8C U10A U11C C12G C13G, the “aptazyme ON/OFF ratio” value rises from 1.2 to 1.38.

Going from U8C U10A U11C C12G C13A to U8C G9U U10C C13A, the “aptazyme ON/OFF ratio” value falls from 1.16 to 1.03.

Compared with U8C G9U U10C C13G, U8C G9U U10C C13U is higher in “aptazyme ON/OFF ratio” value: 1.04 for the first, 1.27 for the second.

Going from U8C G9U C12U to U8C G9U U10G C12G C13A, the “aptazyme ON/OFF ratio” value falls from 1.42 to 1.3.

Going from U8C G9U U10G C12G C13U to U8C G9U U10G C12G C13G, the “aptazyme ON/OFF ratio” value falls from 1.3 to 1.21.

Compared with U8C U10A U11G C12G, U8C U10A U11G C12A is lower in “aptazyme ON/OFF ratio” value: 1.31 for the first, 1.06 for the second.

Going from U8C U10A U11G C12U to U8C G9U U10G U11G C12U C13U, the “aptazyme ON/OFF ratio” value falls from 1.33 to 1.15.

First: U8C G9U U10G U11G C12U C13G
Second: U8C G9U U10G U11G C12U C13A
The “aptazyme ON/OFF ratio” value of the first is lower: 1.08 for the first, 1.11 for the second.

Compared with U8C G9U U11G C12A, U8C G9U U11G C12U is higher in “aptazyme ON/OFF ratio” value: 1.08 for the first, 1.59 for the second.

Going from U8C G9U U11G C12G to U8C G9U U11C C13G, the “aptazyme ON/OFF ratio” value falls from 1.2 to 1.03.

Compared with U8C G9U U11C C13A, U8C G9U U11C C13U is lower in “aptazyme ON/OFF ratio” value: 1.03 for the first, 1.01 for the second.

Going from U8C G9U U11A C12A C13A to U8C G9U U11A C12A C13U, the “aptazyme ON/OFF ratio” value rises from 1.26 to 1.34.

Compared with U8C G9U U11A C12A C13G, U8C G9U U11C C12A C13G is lower in “aptazyme ON/OFF ratio” value: 1.16 for the first, 1.04 for the second.

Compared with U8C G9U U11C C12A C13U, U8C G9U U11C C12A C13A is lower in “aptazyme ON/OFF ratio” value: 1.18 for the first, 1.11 for the second.

Compared with U8C U10C C13A, U8C U10C C13G is higher in “aptazyme ON/OFF ratio” value: 1.07 for the first, 1.26 for the second.

First: U8C U10C C13U
Second: U8C U10A U11G C12A C13U
The “aptazyme ON/OFF ratio” value of the first is higher: 1.51 for the first, 1.33 for the second.

Going from U8C U10A U11G C12A C13A to U8C U10A U11G C12A C13G, the “aptazyme ON/OFF ratio” value rises from 1.24 to 1.26.

Going from U8C G9U U10C U11A C12A C13A to U8C G9U U10C U11A C12A C13U, the “aptazyme ON/OFF ratio” value rises from 1.09 to 1.11.

First: U8C G9U U10C U11A C12A C13G
Second: U8C G9U U10A U11A C12G C13A
The “aptazyme ON/OFF ratio” value of the first is lower: 1.08 for the first, 1.2 for the second.

Going from U8C G9U U10A U11A C12G C13G to U8C G9U U10A U11A C12G C13U, the “aptazyme ON/OFF ratio” value rises from 1.16 to 1.21.

Compared with U8C G9U U10C U11C C12A, U8C G9U U10C U11C C12G is higher in “aptazyme ON/OFF ratio” value: 1.03 for the first, 1.09 for the second.

Going from U8C G9U U10C U11C C12U to U8C U10A U11A C12G, the “aptazyme ON/OFF ratio” value rises from 1.06 to 1.28.

Going from U8C U10A U11A C12U to U8C U10A U11A C12A, the “aptazyme ON/OFF ratio” value falls from 1.22 to 1.17.

Compared with U8C G9U U11A C12U, U8C G9U U11A C12G is lower in “aptazyme ON/OFF ratio” value: 1.39 for the first, 1.36 for the second.

Going from U8C G9U U11A C12A to U8C U10A U11A C12U C13U, the “aptazyme ON/OFF ratio” value falls from 1.37 to 1.26.

Compared with U8C U10A U11A C12U C13G, U8C U10A U11A C12U C13A is lower in “aptazyme ON/OFF ratio” value: 1.3 for the first, 1.18 for the second.

Compared with U8C G9U U11G C13A, U8C G9U U11G C13U is lower in “aptazyme ON/OFF ratio” value: 1.24 for the first, 1.23 for the second.

Compared with U8C G9U U11G C13G, U8C U10A U11G C12G C13G is higher in “aptazyme ON/OFF ratio” value: 1.02 for the first, 1.39 for the second.

Going from U8C U10A U11G C12G C13U to U8C U10A U11G C12G C13A, the “aptazyme ON/OFF ratio” value rises from 1.28 to 1.43.

Going from U8C U10A U11A C12G C13G to U8C U10A U11A C12G C13U, the “aptazyme ON/OFF ratio” value falls from 1.35 to 1.28.

Compared with U8C U10A U11A C12G C13A, U8C G9U U10A U11G C12G C13G is lower in “aptazyme ON/OFF ratio” value: 1.15 for the first, 1.12 for the second.

Going from U8C G9U U10A U11G C12G C13U to U8C G9U U10A U11G C12G C13A, the “aptazyme ON/OFF ratio” value falls from 1.14 to 1.13.

Compared with U8C U10C C12U C13A, U8C U10C C12U C13G is higher in “aptazyme ON/OFF ratio” value: 1.21 for the first, 1.26 for the second.

Going from U8C U10C C12U C13U to U8C G9U U10C U11G C12U C13G, the “aptazyme ON/OFF ratio” value falls from 1.41 to 1.12.

Going from U8C G9U U10C U11G C12U C13A to U8C G9U U10C U11G C12U C13U, the “aptazyme ON/OFF ratio” value rises from 1.13 to 1.25.

Compared with U8C G9U U10G U11C C12A, U8C G9U U10G U11C C12U is lower in “aptazyme ON/OFF ratio” value: 1.62 for the first, 1.04 for the second.

First: U8C G9U U10G U11C C12G
Second: U8C U10C U11A C12A
The “aptazyme ON/OFF ratio” value of the first is lower: 1.19 for the first, 1.34 for the second.

Going from U8C G9U U10A U11C C12A C13A to U8C G9U U10A U11C C12A C13G, the “aptazyme ON/OFF ratio” value falls from 1.33 to 1.08.

Going from U8C G9U U10A U11C C12A C13U to U8C G9U U10C U11G C12A C13U, the “aptazyme ON/OFF ratio” value falls from 1.24 to 1.12.

With U8C G9U U10C U11G C12A C13A the “aptazyme ON/OFF ratio” value was 1.19.
